Test results taken from PMC7749165, “The δ subunit and NTPase HelD institute a two-pronged mechanism for RNA polymerase recycling” (Nature Communications, 2020).

T1: HelD (recombinant B. subtilis NTPase HelD) (Bacillus subtilis (strain 168), UniProt O32215)
T1 chain: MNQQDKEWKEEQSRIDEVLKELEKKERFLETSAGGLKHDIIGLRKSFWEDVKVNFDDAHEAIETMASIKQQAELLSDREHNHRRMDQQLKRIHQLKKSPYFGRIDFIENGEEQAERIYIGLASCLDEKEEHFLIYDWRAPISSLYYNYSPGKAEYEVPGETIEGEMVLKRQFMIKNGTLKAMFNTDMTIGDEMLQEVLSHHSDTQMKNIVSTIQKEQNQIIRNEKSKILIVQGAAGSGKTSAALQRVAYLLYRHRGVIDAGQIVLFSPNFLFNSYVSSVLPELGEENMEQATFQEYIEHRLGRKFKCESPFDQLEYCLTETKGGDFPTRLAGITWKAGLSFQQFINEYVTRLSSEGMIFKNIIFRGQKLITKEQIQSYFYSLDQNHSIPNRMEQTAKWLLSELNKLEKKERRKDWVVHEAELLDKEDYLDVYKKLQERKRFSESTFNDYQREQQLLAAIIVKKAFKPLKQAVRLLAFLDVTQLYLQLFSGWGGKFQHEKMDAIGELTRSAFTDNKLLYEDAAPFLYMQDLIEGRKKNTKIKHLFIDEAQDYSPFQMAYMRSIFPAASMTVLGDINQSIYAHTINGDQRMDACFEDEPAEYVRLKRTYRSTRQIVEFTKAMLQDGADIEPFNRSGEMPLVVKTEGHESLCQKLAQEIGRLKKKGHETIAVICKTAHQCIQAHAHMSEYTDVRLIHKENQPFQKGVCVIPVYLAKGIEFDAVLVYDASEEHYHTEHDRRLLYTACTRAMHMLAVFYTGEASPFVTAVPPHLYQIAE

B1: RNAP α subunit (natural protein, B. subtilis (endogenous), UniProt P20429 1-314, looked up)
chain: MIEIEKPKIETVEISDDAKFGKFVVEPLERGYGTTLGNSLRRILLSSLPGAAVTSIQIDGVLHEFSTIEGVVEDVTTIILHIKKLALKIYSDEEKTLEIDVQGEGTVTAADITHDSDVEILNPDLHIATLGENASFRVRLTAQRGRGYTPADANKRDDQPIGVIPIDSIYTPVSRVSYQVENTRVGQVANYDKLTLDVWTDGSTGPKEAIALGSKILTEHLNIFVGLTDEAQHAEIMVEKEEDQKEKVLEMTIEELDLSVRSYNCLKRAGINTVQELANKTEEDMMKVRNLGRKSLEEVKAKLEELGLGLRKDD
notes: RNAP α subunit, B. subtilis; only the N-terminal domains have density in the structures; also called α1; α2; source: endogenous, B. subtilis; in lysate and purified as part of RNAP
B2: RNAP δ subunit, endogenous (natural protein, B. subtilis (endogenous), UniProt P12464 1-173, looked up)
chain: MGIKQYSQEELKEMALVEIAHELFEEHKKPVPFQELLNEIASLLGVKKEELGDRIAQFYTDLNIDGRFLALSDQTWGLRSWYPYDQLDEETQPTVKAKKKKAKKAVEEDLDLDEFEEIDEDDLDLDEVEEELDLEADDFDEEDLDEDDDDLEIEEDIIDEDDEDYDDEEEEIK
notes: RNAP δ subunit, B. subtilis; NTD residues 1-90, CTR residues 91-173; source: endogenous, B. subtilis MH5636 or LK782; in lysate and purified as part of RNAP
B3: δ^NTD (N-terminal domain of the RNAP δ subunit) (protein)
chain: MGIKQYSQEELKEMALVEIAHELFEEHKKPVPFQELLNEIASLLGVKKEELGDRIAQFYTDLNIDGRFLALSDQTWGLRSWYPYDQLDEE
B4: RNAP β subunit (natural protein, B. subtilis (endogenous), UniProt P37870 1-1193, looked up)
chain: MTGQLVQYGRHRQRRSYARISEVLELPNLIEIQTSSYQWFLDEGLREMFQDISPIEDFTGNLSLEFIDYSLGEPKYPVEESKERDVTYSAPLRVKVRLINKETGEVKDQDVFMGDFPIMTDTGTFIINGAERVIVSQLVRSPSVYFSGKVDKNGKKGFTATVIPNRGAWLEYETDAKDVVYVRIDRTRKLPVTVLLRALGFGSDQEILDLIGENEYLRNTLDKDNTENSDKALLEIYERLRPGEPPTVENAKSLLDSRFFDPKRYDLANVGRYKINKKLHIKNRLFNQRLAETLVDPETGEILAEKGQILDRRTLDKVLPYLENGIGFRKLYPNGGVVEDEVTLQSIKIFAPTDQEGEQVINVIGNAYIEEEIKNITPADIISSISYFFNLLHGVGDTDDIDHLGNRRLRSVGELLQNQFRIGLSRMERVVRERMSIQDTNTITPQQLINIRPVIASIKEFFGSSQLSQFMDQTNPLAELTHKRRLSALGPGGLTRERAGMEVRDVHYSHYGRMCPIETPEGPNIGLINSLSSYAKVNRFGFIETPYRRVDPETGKVTGRIDYLTADEEDNYVVAQANARLDDEGAFIDDSIVARFRGENTVVSRNRVDYMDVSPKQVVSAATACIPFLENDDSNRALMGANMQRQAVPLMQPEAPFVGTGMEYVSGKDSGAAVICKHPGIVERVEAKNVWVRRYEEVDGQKVKGNLDKYSLLKFVRSNQGTCYNQRPIVSVGDEVVKGEILADGPSMELGELALGRNVMVGFMTWDGYNYEDAIIMSERLVKDDVYTSIHIEEYESEARDTKLGPEEITRDIPNVGEDALRNLDDRGIIRIGAEVKDGDLLVGKVTPKGVTELTAEERLLHAIFGEKAREVRDTSLRVPHGGGGIIHDVKVFNREDGDELPPGVNQLVRVYIVQKRKISEGDKMAGRHGNKGVISKILPEEDMPYLPDGTPIDIMLNPLGVPSRMNIGQVLELHMGMAARYLGIHIASPVFDGAREEDVWETLEEAGMSRDAKTVLYDGRTGEPFDNRVSVGIMYMIKLAHMVDDKLHARSTGPYSLVTQQPLGGKAQFGGQRFGEMEVWALEAYGAAYTLQEILTVKSDDVVGRVKTYEAIVKGDNVPEPGVPESFKVLIKELQSLGMDVKILSGDEEEIEMRDLEDEEDAKQADGLALSGDEEPEETASADVERDVVTKE
notes: RNAP β subunit, B. subtilis; source: endogenous, B. subtilis; in lysate and purified as part of RNAP

Assays:
[1] = molecular target: T2, RNAP β′ subunit with chromosomally encoded C-terminal His10-tag (B. subtilis, UniProt P37871 1-1199); experiment: co-purification; RNAP captured from lysates of stationary phase B. subtilis by the C-terminal His10-tag on β′ (Ni-NTA), then heparin column and SEC, 4 °C; content of the fractions told from gels (strains MH5636, LK782, LK1032); conditions: partners not purified
T2 construct: RNAP β′ subunit, B. subtilis; source: B. subtilis strains MH5636, LK782, LK1032; in lysate and purified as part of RNAP (Ni-NTA, heparin, SEC); not shown: His10, C-terminal, kept
T2 sequence (P37871 whole entry): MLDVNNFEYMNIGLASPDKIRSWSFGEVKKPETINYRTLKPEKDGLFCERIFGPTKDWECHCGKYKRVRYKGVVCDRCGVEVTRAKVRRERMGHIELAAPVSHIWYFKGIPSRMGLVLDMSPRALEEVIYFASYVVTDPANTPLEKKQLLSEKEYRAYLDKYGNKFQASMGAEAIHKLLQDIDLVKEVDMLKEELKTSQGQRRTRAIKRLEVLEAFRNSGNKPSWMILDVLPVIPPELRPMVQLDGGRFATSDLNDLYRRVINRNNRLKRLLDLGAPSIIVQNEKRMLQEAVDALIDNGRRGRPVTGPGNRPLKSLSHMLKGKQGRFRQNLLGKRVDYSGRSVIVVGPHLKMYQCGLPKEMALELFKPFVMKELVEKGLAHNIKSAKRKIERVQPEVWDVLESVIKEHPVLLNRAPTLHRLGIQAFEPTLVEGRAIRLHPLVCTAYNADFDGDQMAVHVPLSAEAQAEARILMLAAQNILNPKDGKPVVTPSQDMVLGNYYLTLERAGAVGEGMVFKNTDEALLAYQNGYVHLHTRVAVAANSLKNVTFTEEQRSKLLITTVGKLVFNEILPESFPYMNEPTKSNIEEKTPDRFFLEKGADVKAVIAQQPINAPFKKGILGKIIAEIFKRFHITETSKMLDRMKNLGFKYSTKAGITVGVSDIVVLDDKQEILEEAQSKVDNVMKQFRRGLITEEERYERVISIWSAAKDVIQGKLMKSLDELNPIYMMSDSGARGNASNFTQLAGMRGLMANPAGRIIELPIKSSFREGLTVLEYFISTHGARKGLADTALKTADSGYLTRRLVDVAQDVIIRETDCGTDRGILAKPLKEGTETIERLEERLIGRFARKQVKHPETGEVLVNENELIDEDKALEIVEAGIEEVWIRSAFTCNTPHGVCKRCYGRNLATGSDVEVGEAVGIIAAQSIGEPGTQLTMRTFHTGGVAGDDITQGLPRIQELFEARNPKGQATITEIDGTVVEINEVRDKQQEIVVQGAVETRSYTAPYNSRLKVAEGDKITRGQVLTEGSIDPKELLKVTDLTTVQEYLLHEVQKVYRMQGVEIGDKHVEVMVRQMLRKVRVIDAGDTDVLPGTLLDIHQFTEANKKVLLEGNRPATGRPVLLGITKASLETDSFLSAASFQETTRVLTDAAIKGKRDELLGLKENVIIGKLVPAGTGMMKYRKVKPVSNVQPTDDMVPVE

[2] = molecular target: T1, HelD (recombinant B. subtilis NTPase …); experiment: analytical SEC with SDS-PAGE
[3] = molecular target: T2, RNAP β′ subunit with chromosomally …; experiment: SEC; HelD release assay: the same RNAP-HelD complex mixed with 5 mM Mg^2+-ATPγS, AMPPNP or ATP in buffer I; Superdex 200 Increase PC 3.2, 4 °C; fractions on SDS-PAGE; conditions: both partners purified

Row | Binder | binding result [1] | binding result [2] | binding result [3]
1 | B1 | binds |  | 
2 | B2 |  | binds | binds
3 | B3 |  | no binding | 
4 | B4 | binds |  | 
